# Measured values from the Human Domainome abundance scans (Beltran et al. 2025).
# ± gives the uncertainty stated by the source.
# B1: SWI/SNF complex subunit SMARCC1, residues 620 to 663; numbered along this chain, Q92922 (parent)
# chain: GREWTEQETLLLLEALEMYKDDWNKVSEHVGSRTQDECILHFLR
# Variants of: B1
# Assay: abundance fitness (aPCA) (normalised: wild type 0, dead -1); higher = more abundant; growth selection in yeast, the domain comes from the species named
# Settings: Homo sapiens
row,Variant,abundance fitness
1,GREWTEQETLLLLEALEMYKDDWNKVSVHVGSRTQDECILHFLR,-0.311 ± 0.083
2,GREWTEQETLLLLEALEMYKDDWNKVSIHVGSRTQDECILHFLR,-0.16 ± 0.19
3,GREWTEQETLLLLEALEMYKDDWNKVSDHVGSRTQDECILHFLR,0.373 ± 0.27
4,GREWTEQETLLLLEALEMYKDDWNKVSRHVGSRTQDECILHFLR,-0.013 ± 0.066
5,GREWTEQETLLLLEALEMYKDDWNKVSCHVGSRTQDECILHFLR,-0.2 ± 0.12
6,GREWTEQETLLLLEALEMYKDDWNKVSYHVGSRTQDECILHFLR,-0.404 ± 0.13
7,GREWTEQETLLLLEALEMYKDDWNKVSAHVGSRTQDECILHFLR,-0.434 ± 0.097
8,GREWTEQETLLLLEALEMYKDDWNKVSGHVGSRTQDECILHFLR,-0.112 ± 0.085
9,GREWTEQETLLLLEALEMYKDDWNKVSHHVGSRTQDECILHFLR,-0.723 ± 0.31
10,GREWTEQETLLLLEALEMYKDDWNKVSTHVGSRTQDECILHFLR,-0.084 ± 0.078
11,GREWTEQETLLLLEALEMYKDDWNKVSWHVGSRTQDECILHFLR,0.08 ± 0.32
12,GREWTEQETLLLLEALEMYKDDWNKVSEHVGWRTQDECILHFLR,-0.622 ± 0.19
13,GREWTEQETLLLLEALEMYKDDWNKVSEHVGHRTQDECILHFLR,-0.138 ± 0.064
14,GREWTEQETLLLLEALEMYKDDWNKVSEHVGPRTQDECILHFLR,-0.419 ± 0.1
15,GREWTEQETLLLLEALEMYKDDWNKVSEHVGYRTQDECILHFLR,-0.182 ± 0.13
16,GREWTEQETLLLLEALEMYKDDWNKVSEHVGLRTQDECILHFLR,-0.224 ± 0.062
17,GREWTEQETLLLLEALEMYKDDWNKVSEHVGRRTQDECILHFLR,-0.176 ± 0.067
18,GREWTEQETLLLLEALEMYKDDWNKVSEHVGERTQDECILHFLR,0.105 ± 0.088
19,GREWTEQETLLLLEALEMYKDDWNKVSEHVGMRTQDECILHFLR,-0.083 ± 0.087
20,GREWTEQETLLLLEALEMYKDDWNKVSEHVGQRTQDECILHFLR,0.032 ± 0.068

row,Variant,abundance fitness
1,GREWTEQETLLLLEALEMYKDDWNKVSEHVGARTQDECILHFLR,-0.015 ± 0.064
2,GREWTEQETLLLLEALEMYKDDWNKVSEHVGCRTQDECILHFLR,-0.124 ± 0.082
3,GREWTEQETLLLLEALEMYKDDWNKVSEHVGVRTQDECILHFLR,-0.191 ± 0.074
4,GREWTEQETLLLLEALEMYKDDWNKVSEHVGIRTQDECILHFLR,-0.135 ± 0.085
5,GREWTEQETLLLLEALEMYKDDWNKVSEHVGNRTQDECILHFLR,0.025 ± 0.097
6,GREWTEQETLLLLEALEMYKDDWNKVSEHVGGRTQDECILHFLR,0.115 ± 0.057
7,GREWTEQETLLLLEALEMYKDDWNKVSEHVGKRTQDECILHFLR,0.05 ± 0.077
8,GREWTEQETLLLLEALEMYKDDWNKVSEHVGTRTQDECILHFLR,0.203 ± 0.056
9,GREWTEQETLLLLEALEMYKDDWNKVSEHVISRTQDECILHFLR,-0.174 ± 0.099
10,GREWTEQETLLLLEALEMYKDDWNKVSEHVPSRTQDECILHFLR,-0.11 ± 0.061
11,GREWTEQETLLLLEALEMYKDDWNKVSEHVASRTQDECILHFLR,-0.03 ± 0.073
12,GREWTEQETLLLLEALEMYKDDWNKVSEHVKSRTQDECILHFLR,0.073 ± 0.084
13,GREWTEQETLLLLEALEMYKDDWNKVSEHVMSRTQDECILHFLR,-0.059 ± 0.087
14,GREWTEQETLLLLEALEMYKDDWNKVSEHVFSRTQDECILHFLR,-0.375 ± 0.15
15,GREWTEQETLLLLEALEMYKDDWNKVSEHVDSRTQDECILHFLR,-0.205 ± 0.14
16,GREWTEQETLLLLEALEMYKDDWNKVSEHVCSRTQDECILHFLR,-0.009 ± 0.072
17,GREWTEQETLLLLEALEMYKDDWNKVSEHVVSRTQDECILHFLR,-0.028 ± 0.054
18,GREWTEQETLLLLEALEMYKDDWNKVSEHVWSRTQDECILHFLR,-0.543 ± 0.11
19,GREWTEQETLLLLEALEMYKDDWNKVSEHVLSRTQDECILHFLR,-0.528 ± 0.077
20,GREWTEQETLLLLEALEMYKDDWNKVSEHVESRTQDECILHFLR,0.032 ± 0.064

row,Variant,abundance fitness
1,GREWTEQETLLLLEALEMYKDDWNKVSEHVQSRTQDECILHFLR,-0.518 ± 0.089
2,GREWTEQETLLLLEALEMYKDDWNKVSEHVYSRTQDECILHFLR,-0.487 ± 0.13
3,GREWTEQETLLLLEALEMYKDDWNKVSEHVNSRTQDECILHFLR,-0.259 ± 0.15
4,GREWTEQETLLLLEALEMYKDDWNKVSEIVGSRTQDECILHFLR,-0.469 ± 0.44
5,GREWTEQETLLLLEALEMYKDDWNKVSEQVGSRTQDECILHFLR,-0.11 ± 0.13
6,GREWTEQETLLLLEALEMYKDDWNKVSEFVGSRTQDECILHFLR,-0.201 ± 0.12
7,GREWTEQETLLLLEALEMYKDDWNKVSEYVGSRTQDECILHFLR,-0.014 ± 0.095
8,GREWTEQETLLLLEALEMYKDDWNKVSEGVGSRTQDECILHFLR,-0.803 ± 0.17
9,GREWTEQETLLLLEALEMYKDDWNKVSECVGSRTQDECILHFLR,-0.382 ± 0.12
10,GREWTEQETLLLLEALEMYKDDWNKVSEVVGSRTQDECILHFLR,-0.349 ± 0.11
11,GREWTEQETLLLLEALEMYKDDWNKVSEMVGSRTQDECILHFLR,-0.209 ± 0.09
12,GREWTEQETLLLLEALEMYKDDWNKVSETVGSRTQDECILHFLR,-0.419 ± 0.11
13,GREWTEQETLLLLEALEMYKDDWNKVSEPVGSRTQDECILHFLR,-0.796 ± 0.16
14,GREWTEQETLLLLEALEMYKDDWNKVSEEVGSRTQDECILHFLR,-0.551 ± 0.25
15,GREWTEQETLLLLEALEMYKDDWNKVSERVGSRTQDECILHFLR,-0.153 ± 0.1
16,GREWTEQETLLLLEALEMYKDDWNKVSELVGSRTQDECILHFLR,-0.264 ± 0.074
17,GREWTEQETLLLLEALEMYKDDWNKVSESVGSRTQDECILHFLR,-0.344 ± 0.083
18,GREWTEQETLLLLEALEMYKDDWNKVSENVGSRTQDECILHFLR,-0.173 ± 0.13
